In US12247238B2, “Mogroside biocatalysis methods and products” (The Coca-Cola Company, priority 2019, dated 2025):

Tests used:
Assay type in all cases: biochemical
[1] = RRK loop library variant second pass evaluation, Siamenoside I substrate; details: Siamenoside I as substrate
Experimental: (§1) Single transformant colonies from 3.2.2 were inoculated into 2mL BMGY in 48 well-growth blocks and grown overnight at 30° C., 1000 rpm in a benchtop incubator before dilution of cell culture from each well into 2 mL BMM medium an equivalent well in a fresh growth block, to an OD600 nm of 1.0, and growing the induction growth blocks at 30° C., 1000 rpm in a benchtop incubator for 72 hours. The cells were then harvested (5000 g, 10 minutes) and the supernatant from each well concentrated using a 30 kDa cut-off Amicon Ultra 0.5 mL concentrator column (10 000 g, 5 minutes). Enzymatic assays were setup in fresh growth blocks to a total volume of 500 μL, comprising with 50 mM sodium citrate buffer pH 5.6, 10 mM magnesium chloride, 10 mM mogroside V and 50 μL concentrated supernatant (˜35 μg mL−1 protein). Assays were incubated without shaking at 37° C. for 72 hours. 190 μL of reaction was combined with 10 μL 10 mM internal standard (N-Boc-) and 5 μL analyzed by HPLC.
(§2) Mogroside compounds HPLC separation and quantification was conducted using a Synergi Hydro-RP column (250 mm×4.6 mm or 150 mm×4.6 mm) with an initial flow rate of 1 mL min−1 and a water: acetonitrile gradient as per below, similar to that described by Zhou et al. (WO 2014/150127). Compounds were detected at 210 nm using diode array detector (Agilent Technologies, USA), and calibration curves established using standard curves from 0.1 to 10 mM. 150 mm column retention times in minutes: mog V 9.5, sia 1 10.6, mog IVa 10.5, mog IV 11.3, mog III 12.6, mogl I 13.2. 250 mm column retention times: mog V 12.3, sia 1 13.2, mog IVa 13.5, mog IV 14.1, mog III 15.3, mog II 16.2.
(§3) 48 variants were selected based on Siamenoside I yields of >70% by peak area for a second pass evaluation. The cell lines were regrown and assayed with both mogroside V and Siamenoside I as substrates, independently.

[2] = RRK loop library variant screening, mogroside V substrate; details: second pass evaluation, 10 mM mogroside V, pH 5.6, 37° C., 72 hours
Experimental: as §1, §2
Therefore, variants showing improved function were chosen if they surpassed a yield value >70% by peak area during this first pass evolution.
as §3

[3] = Example 8 standard mogroside biocatalytic assay, Mog V as substrate; details: 37° C., pH 5.6
Experimental: Standard mogroside biocatalytic assays were performed at 37° C. in 500 μL volume 50 mM sodium citrate buffer pH 5.6, 10 mM magnesium chloride, 10 mM substrate (typically mogroside V or Siamenoside I) and 50 μg mL−1 enzyme, and incubated for 24-96 hours. Mogroside glucosidation activity was detected by direct HPLC detection and quantification of mogroside V substrate and mogroside products from filtered reaction supernatant, and quantified by comparison with standard curves based on peak area (see Analytical Methods).
as §2, with “Analytical Method: Mogroside” for “Mogroside”

Molecule	Siamenoside I Substrate Evaluation % Peak Area Siamenoside I Left After 72 hr [1] [% Peak Area]	% Peak Area Siamenoside I [2] [% Peak Area]	Reaction Progress [2]	Reaction progress (% conversion) [3] [%]	% Siamenoside I ([3]; 72 hr) [%]
S3 RRK 5: RRK loop library variant, positions 204/205/208: ESG (protein, UniProt Q2UCU3 19-1005, looked up, variant G204E C205S V208G) Beta-galactosidase A: ASIKHRLNGFTILEHPDPAKRDLLQDIVTWDDKSLFINGERIMLFSGEVHPFRLPVPSLWLDIFHKIRALGFNCVSFYIDWALLEGKPGDYRAEGIFALEPFFDAAKEAGIYLIARPGSYINAEVSGGGFPGWLQRVNGTLRSSDEPFLKATDNYIANAAAAVAKAQITNGGPVILYQPENEYSGESCGGKYPDADYMQYVMDQARKADIVVPFISNDASPSGHNAPGSGTGAVDIYGHDSYPLGFDCANPSVWPEGKLPDNFRTLHLEQSPSTPYSLLEFQAGAFDPWGGPGFEKCYALVNHEFSRVFYRNDLSFGVSTFNLYMTFGGTNWGNLGHPGGYTSYDYGSPITETRNVTREKYSDIKLLANFVKASPSYLTATPRNLTTGVYTDTSDLAVTPLIGDSPGSFFVVRHTDYSSQESTSYKLKLPTSAGNLTIPQLEGTLSLNGRDSKIHVVDYNVSGTNIIYSTAEVFTWKKFDGNKVLVLYGGPKEHHELAIASKSNVTIIEGSDSGIVSTRKGSSVIIGWDVSSTRRIVQVGDLRVFLLDRNSAYNYWVPELPTEGTSPGFSTSKTTASSIIVKAGYLLRGAHLDGADLHLTADFNATTPIEVIGAPTGAKNLFVNGEKASHTVDKNGIWSSEVKYAAPEIKLPGLKDLDWKYLDTLPEIKSSYDDSAWVSADLPKTKNTHRPLDTPTSLYSSDYGFHTGYLIYRGHFVANGKESEFFIRTQGGSAFGSSVWLNETYLGSWTGADYAMDGNSTYKLSQLESGKNYVITVVIDNLGLDENWTVGEETMKNPRGILSYKLSGQDASAITWKLTGNLGGEDYQDKVRGPLNEGGLYAERQGFHQPQPPSESWESGSPLEGLSKPGIGFYTAQFDLDLPKGWDVPLYFNFGNNTQAARAQLYVNGYQYGKFTGNVGPQTSFPVPEGILNYRGTNYVALSLWALESDGAKLGSFELSYTTPVLTGYGNVESPEQPKYEQRKGAY	69	73	87		
S3 RRK 7: RRK loop library variant, positions 204/205/208: DSE (protein, UniProt Q2UCU3 19-1005, looked up, variant G204D C205S V208E) Beta-galactosidase A: ASIKHRLNGFTILEHPDPAKRDLLQDIVTWDDKSLFINGERIMLFSGEVHPFRLPVPSLWLDIFHKIRALGFNCVSFYIDWALLEGKPGDYRAEGIFALEPFFDAAKEAGIYLIARPGSYINAEVSGGGFPGWLQRVNGTLRSSDEPFLKATDNYIANAAAAVAKAQITNGGPVILYQPENEYSGDSCGEKYPDADYMQYVMDQARKADIVVPFISNDASPSGHNAPGSGTGAVDIYGHDSYPLGFDCANPSVWPEGKLPDNFRTLHLEQSPSTPYSLLEFQAGAFDPWGGPGFEKCYALVNHEFSRVFYRNDLSFGVSTFNLYMTFGGTNWGNLGHPGGYTSYDYGSPITETRNVTREKYSDIKLLANFVKASPSYLTATPRNLTTGVYTDTSDLAVTPLIGDSPGSFFVVRHTDYSSQESTSYKLKLPTSAGNLTIPQLEGTLSLNGRDSKIHVVDYNVSGTNIIYSTAEVFTWKKFDGNKVLVLYGGPKEHHELAIASKSNVTIIEGSDSGIVSTRKGSSVIIGWDVSSTRRIVQVGDLRVFLLDRNSAYNYWVPELPTEGTSPGFSTSKTTASSIIVKAGYLLRGAHLDGADLHLTADFNATTPIEVIGAPTGAKNLFVNGEKASHTVDKNGIWSSEVKYAAPEIKLPGLKDLDWKYLDTLPEIKSSYDDSAWVSADLPKTKNTHRPLDTPTSLYSSDYGFHTGYLIYRGHFVANGKESEFFIRTQGGSAFGSSVWLNETYLGSWTGADYAMDGNSTYKLSQLESGKNYVITVVIDNLGLDENWTVGEETMKNPRGILSYKLSGQDASAITWKLTGNLGGEDYQDKVRGPLNEGGLYAERQGFHQPQPPSESWESGSPLEGLSKPGIGFYTAQFDLDLPKGWDVPLYFNFGNNTQAARAQLYVNGYQYGKFTGNVGPQTSFPVPEGILNYRGTNYVALSLWALESDGAKLGSFELSYTTPVLTGYGNVESPEQPKYEQRKGAY	73	72	85		
E142A RRK77: β-galactosidase variant, RRK substitutions ENR with E142A (protein, UniProt Q2UCU3 19-1005, looked up, variant E142A G204E C205N V208R) Beta-galactosidase A: ASIKHRLNGFTILEHPDPAKRDLLQDIVTWDDKSLFINGERIMLFSGEVHPFRLPVPSLWLDIFHKIRALGFNCVSFYIDWALLEGKPGDYRAEGIFALEPFFDAAKEAGIYLIARPGSYINAAVSGGGFPGWLQRVNGTLRSSDEPFLKATDNYIANAAAAVAKAQITNGGPVILYQPENEYSGENCGRKYPDADYMQYVMDQARKADIVVPFISNDASPSGHNAPGSGTGAVDIYGHDSYPLGFDCANPSVWPEGKLPDNFRTLHLEQSPSTPYSLLEFQAGAFDPWGGPGFEKCYALVNHEFSRVFYRNDLSFGVSTFNLYMTFGGTNWGNLGHPGGYTSYDYGSPITETRNVTREKYSDIKLLANFVKASPSYLTATPRNLTTGVYTDTSDLAVTPLIGDSPGSFFVVRHTDYSSQESTSYKLKLPTSAGNLTIPQLEGTLSLNGRDSKIHVVDYNVSGTNIIYSTAEVFTWKKFDGNKVLVLYGGPKEHHELAIASKSNVTIIEGSDSGIVSTRKGSSVIIGWDVSSTRRIVQVGDLRVFLLDRNSAYNYWVPELPTEGTSPGFSTSKTTASSIIVKAGYLLRGAHLDGADLHLTADFNATTPIEVIGAPTGAKNLFVNGEKASHTVDKNGIWSSEVKYAAPEIKLPGLKDLDWKYLDTLPEIKSSYDDSAWVSADLPKTKNTHRPLDTPTSLYSSDYGFHTGYLIYRGHFVANGKESEFFIRTQGGSAFGSSVWLNETYLGSWTGADYAMDGNSTYKLSQLESGKNYVITVVIDNLGLDENWTVGEETMKNPRGILSYKLSGQDASAITWKLTGNLGGEDYQDKVRGPLNEGGLYAERQGFHQPQPPSESWESGSPLEGLSKPGIGFYTAQFDLDLPKGWDVPLYFNFGNNTQAARAQLYVNGYQYGKFTGNVGPQTSFPVPEGILNYRGTNYVALSLWALESDGAKLGSFELSYTTPVLTGYGNVESPEQPKYEQRKGAY				89	76 ± 3.1
